Legend:
Experiment in all cases: flow cytometry on transfected HEK293 cells
[1] = target: N-terminal FLAG-tagged human ROBO1 (pCI-FLAG-hROBO1-transfected HEK293 cells) (human, UniProt Q9Y6N7 58-1651)
[2] = target: T1, mouse ROBO4 (pCI-mROBO4-transfected HEK293 cells) (mouse, UniProt Q8C310 28-1012)
T1 sequence: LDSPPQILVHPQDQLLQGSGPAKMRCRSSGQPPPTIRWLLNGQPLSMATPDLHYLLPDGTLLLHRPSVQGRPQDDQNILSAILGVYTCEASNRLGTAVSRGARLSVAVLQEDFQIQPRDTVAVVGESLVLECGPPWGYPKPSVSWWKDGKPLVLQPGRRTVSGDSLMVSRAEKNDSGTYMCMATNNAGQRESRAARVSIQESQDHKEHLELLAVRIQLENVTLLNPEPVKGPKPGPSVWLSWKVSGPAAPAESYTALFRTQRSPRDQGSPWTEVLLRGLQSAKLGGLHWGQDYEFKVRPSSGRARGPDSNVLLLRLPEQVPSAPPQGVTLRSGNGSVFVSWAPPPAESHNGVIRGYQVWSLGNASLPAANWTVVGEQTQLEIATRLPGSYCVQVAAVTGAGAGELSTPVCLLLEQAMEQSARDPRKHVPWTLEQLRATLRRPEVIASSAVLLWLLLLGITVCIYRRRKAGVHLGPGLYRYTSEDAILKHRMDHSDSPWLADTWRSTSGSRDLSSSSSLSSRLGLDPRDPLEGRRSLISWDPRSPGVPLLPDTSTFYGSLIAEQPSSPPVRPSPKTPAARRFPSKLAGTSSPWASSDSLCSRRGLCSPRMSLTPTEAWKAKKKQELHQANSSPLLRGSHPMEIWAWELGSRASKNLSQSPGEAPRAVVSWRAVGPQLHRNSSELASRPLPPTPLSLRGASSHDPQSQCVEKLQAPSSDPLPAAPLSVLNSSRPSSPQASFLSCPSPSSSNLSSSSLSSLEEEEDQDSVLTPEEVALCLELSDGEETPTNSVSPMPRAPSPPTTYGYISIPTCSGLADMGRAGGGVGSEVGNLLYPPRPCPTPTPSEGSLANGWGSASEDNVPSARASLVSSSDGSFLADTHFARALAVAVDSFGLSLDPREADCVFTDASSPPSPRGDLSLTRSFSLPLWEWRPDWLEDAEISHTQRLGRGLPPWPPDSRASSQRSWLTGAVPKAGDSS

[3] = target: T2, human ROBO3 (pCI-hROBO3-transfected HEK293 cells) (human, UniProt Q96MS0 21-1386)
T2 sequence: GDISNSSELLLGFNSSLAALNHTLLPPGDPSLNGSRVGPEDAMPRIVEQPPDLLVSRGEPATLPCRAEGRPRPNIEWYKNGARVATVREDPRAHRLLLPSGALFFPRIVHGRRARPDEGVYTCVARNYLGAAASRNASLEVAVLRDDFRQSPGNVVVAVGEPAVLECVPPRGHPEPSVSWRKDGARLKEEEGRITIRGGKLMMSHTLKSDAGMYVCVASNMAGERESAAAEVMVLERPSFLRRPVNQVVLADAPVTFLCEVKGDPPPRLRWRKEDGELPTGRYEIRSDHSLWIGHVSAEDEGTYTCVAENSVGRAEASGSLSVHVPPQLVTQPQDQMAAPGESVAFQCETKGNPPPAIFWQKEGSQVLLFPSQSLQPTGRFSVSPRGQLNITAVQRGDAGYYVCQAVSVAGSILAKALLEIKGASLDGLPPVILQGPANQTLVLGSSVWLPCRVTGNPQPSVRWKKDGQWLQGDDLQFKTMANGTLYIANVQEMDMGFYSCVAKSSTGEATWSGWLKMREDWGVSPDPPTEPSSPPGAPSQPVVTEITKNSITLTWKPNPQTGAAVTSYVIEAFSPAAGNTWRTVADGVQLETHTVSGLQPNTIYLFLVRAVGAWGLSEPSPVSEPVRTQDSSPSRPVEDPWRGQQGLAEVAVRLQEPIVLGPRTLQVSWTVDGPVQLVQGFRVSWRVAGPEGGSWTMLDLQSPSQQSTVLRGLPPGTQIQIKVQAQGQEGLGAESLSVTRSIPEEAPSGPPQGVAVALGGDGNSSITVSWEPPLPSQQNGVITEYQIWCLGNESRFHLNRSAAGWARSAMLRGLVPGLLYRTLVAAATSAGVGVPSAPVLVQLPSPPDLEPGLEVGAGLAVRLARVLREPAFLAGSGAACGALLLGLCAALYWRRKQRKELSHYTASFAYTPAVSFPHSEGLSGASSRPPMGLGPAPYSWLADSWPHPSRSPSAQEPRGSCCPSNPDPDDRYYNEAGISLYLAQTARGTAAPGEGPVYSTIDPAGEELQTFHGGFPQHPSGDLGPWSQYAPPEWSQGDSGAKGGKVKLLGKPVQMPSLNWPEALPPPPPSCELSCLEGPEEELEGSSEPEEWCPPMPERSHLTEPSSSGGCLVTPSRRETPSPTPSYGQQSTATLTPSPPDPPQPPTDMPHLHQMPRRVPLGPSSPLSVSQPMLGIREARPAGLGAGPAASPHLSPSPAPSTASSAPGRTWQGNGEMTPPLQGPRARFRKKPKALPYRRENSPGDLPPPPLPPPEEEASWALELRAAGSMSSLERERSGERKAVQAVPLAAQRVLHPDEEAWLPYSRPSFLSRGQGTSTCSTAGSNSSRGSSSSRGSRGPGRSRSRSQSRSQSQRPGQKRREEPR

Sequence of N-terminal FLAG-tagged human ROBO1 (pCI-FLAG-hROBO1-transfected HEK293 cells) (Q9Y6N7 other isoform, or with tags, fused parts or gaps): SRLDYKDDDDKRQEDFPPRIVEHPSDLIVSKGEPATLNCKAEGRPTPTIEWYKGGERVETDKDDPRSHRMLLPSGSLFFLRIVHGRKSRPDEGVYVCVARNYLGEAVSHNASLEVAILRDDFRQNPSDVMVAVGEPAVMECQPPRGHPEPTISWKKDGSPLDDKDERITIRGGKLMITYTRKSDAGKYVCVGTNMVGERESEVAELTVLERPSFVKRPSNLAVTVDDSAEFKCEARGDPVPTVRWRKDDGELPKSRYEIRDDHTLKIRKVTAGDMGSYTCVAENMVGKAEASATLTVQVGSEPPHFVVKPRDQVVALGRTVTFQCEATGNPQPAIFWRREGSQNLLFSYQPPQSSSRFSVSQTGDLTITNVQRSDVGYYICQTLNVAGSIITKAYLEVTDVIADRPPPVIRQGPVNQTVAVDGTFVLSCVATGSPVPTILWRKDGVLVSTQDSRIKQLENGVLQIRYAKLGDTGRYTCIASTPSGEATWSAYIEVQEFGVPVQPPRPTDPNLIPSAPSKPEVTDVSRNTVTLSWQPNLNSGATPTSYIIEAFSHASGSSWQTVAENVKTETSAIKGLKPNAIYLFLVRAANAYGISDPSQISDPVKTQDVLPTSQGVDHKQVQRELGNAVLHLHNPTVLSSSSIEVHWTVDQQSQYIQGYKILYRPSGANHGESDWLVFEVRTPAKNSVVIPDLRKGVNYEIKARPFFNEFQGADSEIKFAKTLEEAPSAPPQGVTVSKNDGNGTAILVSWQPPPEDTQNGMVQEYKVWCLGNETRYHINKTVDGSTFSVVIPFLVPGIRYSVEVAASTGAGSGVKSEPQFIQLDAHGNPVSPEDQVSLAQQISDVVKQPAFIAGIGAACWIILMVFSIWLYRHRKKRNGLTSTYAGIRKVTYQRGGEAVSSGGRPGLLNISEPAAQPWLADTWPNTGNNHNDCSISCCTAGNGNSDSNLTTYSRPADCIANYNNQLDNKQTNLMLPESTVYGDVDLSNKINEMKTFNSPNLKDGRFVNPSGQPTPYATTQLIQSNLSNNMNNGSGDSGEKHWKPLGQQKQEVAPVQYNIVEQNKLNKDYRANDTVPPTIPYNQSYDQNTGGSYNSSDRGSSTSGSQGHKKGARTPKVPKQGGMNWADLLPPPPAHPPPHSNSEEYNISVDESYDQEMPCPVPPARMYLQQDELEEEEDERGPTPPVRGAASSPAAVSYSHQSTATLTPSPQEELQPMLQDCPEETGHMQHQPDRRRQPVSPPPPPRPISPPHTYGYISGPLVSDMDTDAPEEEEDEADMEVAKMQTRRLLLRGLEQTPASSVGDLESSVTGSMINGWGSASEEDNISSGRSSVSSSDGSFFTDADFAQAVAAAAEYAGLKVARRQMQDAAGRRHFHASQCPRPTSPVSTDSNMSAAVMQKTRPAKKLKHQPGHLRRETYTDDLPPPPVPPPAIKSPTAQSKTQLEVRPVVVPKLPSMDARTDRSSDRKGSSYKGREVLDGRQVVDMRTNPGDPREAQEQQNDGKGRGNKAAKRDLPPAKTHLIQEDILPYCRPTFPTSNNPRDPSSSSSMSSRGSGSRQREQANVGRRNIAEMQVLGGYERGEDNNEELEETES

B1: humanized MAb1 antibody H-1140 (antibody, human IgG2, kappa, V domains shown)
VH: EVQLVESGGGLVQPGGSLRLSCAASGFTFSTYAMSWVRQAPGKGLEWVATISQGGTYTYYPDSVKGRFTISRDNAKNTLYLQMNSLRAEDTAVYYCARLIYYDYLDYWGQGTLVTVSS
VL: DIVMTQSPLSLPVTLGEPASISCRSSQSLENSNGNTYLNWYLQKPGQSPQLLIYRVSNRFSGVPDRFSGSGSGTDFTLKISRVEAEDVGVYYCLQVTHVPWTFGPGTKVDIKR
notes: Human IgG2 / kappa constant regions; also called hMAb1-H2-type heavy chain + hMAb1-L1-type light chain
binding result [1]: no binding (tested: 10 µg/mL (method of 4)-4-2)) | binding result [2]: no binding (tested: 10 µg/mL (method of 4)-3-2)) | binding result [3]: no binding (tested: 10 µg/mL (method of 4)-4-2))
